Data reported in patent publication US20080004209.

How the values were obtained:
[1] = system: alkylated and reduced resistin
alkylated and reduced resistin, sequence (Q9HD89 19-108): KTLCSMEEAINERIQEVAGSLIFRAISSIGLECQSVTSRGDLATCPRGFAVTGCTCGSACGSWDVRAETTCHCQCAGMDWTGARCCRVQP

trypsin, sequence (P00761 9-231): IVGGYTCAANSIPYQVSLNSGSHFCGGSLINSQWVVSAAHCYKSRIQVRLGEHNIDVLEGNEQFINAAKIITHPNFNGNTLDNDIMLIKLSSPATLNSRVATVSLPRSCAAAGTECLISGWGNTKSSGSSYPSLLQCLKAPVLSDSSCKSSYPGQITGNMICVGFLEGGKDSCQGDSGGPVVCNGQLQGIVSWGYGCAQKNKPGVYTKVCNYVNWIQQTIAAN
native resistin, sequence (Q9HD89 19-108): as the sequence (Q9HD89 19-108) above

Substance | cleavage of resistin in vitro (24 hr digestion, SDS-PAGE) [1] | proteolytic cleavage (preliminary protease digestion experiments, data not shown) (native resistin)
HIV-1 protease | incubation with HIV-1 protease, cathepsin D and cathepsin E resulted in the appearance of a ca. 7 kDa resistin cleavage product | –
cathepsin D | incubation with HIV-1 protease, cathepsin D and cathepsin E resulted in the appearance of a ca. 7 kDa resistin cleavage product | –
cathepsin E | incubation with HIV-1 protease, cathepsin D and cathepsin E resulted in the appearance of a ca. 7 kDa resistin cleavage product | –
trypsin | resistin was completely degraded by the non-specific protease, trypsin | native resistin was refractory to proteolytic cleavage by trypsin, suggestive of a highly folded state (data not shown)
